The subject of the data set is DNA dMTase. Kind of data set: Demethylation of [mdC32pdG]n substrate (conversion of mdCMP to dCMP) with additives or pretreatment. The data set is classed as biochemical, human. The conditions noted are these: transformation of mdC to C or release of volatile methyl residues; proteinase K 200 μg/ml 1 h 56° C.; RNase A 100 μg/ml. The procedure: (A) To assay the conversion of methyl-dCMP (mdCMP) to dCMP we used a previously described method (Szyf et al., 1995). Briefly, α^32P labeled, fully methylated poly[mdC^32PdG]n substrate was prepared as follows. One hundred ng of a double-stranded fully methylated (mdCpdG) oligomer (Pharmacia) were denatured by boiling, which was followed by partial annealing at room temperature. The complementary strand was extended with Klenow fragment (Boehringer Mannheim) using methyl-5-dCTP (mdCTP, 0.1 mM) (Boehringer Mannheim) and […] (100 μCi, 3000 Ci/mmol), and the unincorporated nucleotides were removed by chromatography through a NAP-5 column (Pharmacia). The NAP-5 chromatography was repeated to exclude minor contamination with unincorporated nucleotides. […] The digestion products were loaded onto a thin layer chromatography plate (TLC) (Kodak, 13255 Cellulose), separated in a medium containing, 132 ml Isobutyric acid:40 ml water:4 ml ammonia solution, autoradiographed and the intensity of the different spots was determined using a phosphorimager (Fuji, BAS 2000). ^32P labeled substrates and tritium labeled substrates were phosphoimaged using BAS 2000 plate and BAS-TR2040 phosphorimager plate respectively. (B) The second method determined removal of methylated residues from methylated DNA by measuring disappearance of ^3H—CH3 or ^14C—CH3 from the reaction mixture. […]

B1: proteinase K: proteinase K (Sigma) used to pretreat DNA dMTase (protein, UniProt P06873 106-384, looked up)
Proteinase K: AAQTNAPWGLARISSTSPGTSTYYYDESAGQGSCVYVIDTGIEASHPEFEGRAQMVKTYYYSSRDGNGHGTHCAGTVGSRTYGVAKKTQLFGVKVLDDNGSGQYSTIIAGMDFVASDKNNRNCPKGVVASLSLGGGYSSSVNSAAARLQSSGVMVAVAAGNNNADARNYSPASEPSVCTVGASDRYDRRSSFSNYGSVLDIFGPGTSILSTWIGGSTRSISGTSMATPHVAGLAAYLMTLGKTTAASACRYIADTANKGDLSNIPFGTVNLLAYNNYQA
Turning to B1, the “DNA dMTase activity after enzyme treatment” value is “abolished”.

B2: RNase: RNase A (Sigma) used to treat column fractions (protein, UniProt P61823 27-150, looked up)
Ribonuclease pancreatic: KETAAAKFERQHMDSSTSAASSSNYCNQMMKSRNLTKDRCKPVNTFVHESLADVQAVCSQKNVACKNGQTNCYQSYSTMSITDCRETGSSKYPNCAYKTTQANKHIIVACEGNPYVPVHFDASV
For B2, the “DNA dMTase activity after enzyme treatment” value is on record as “not inhibited but rather enhanced”.

For the origin of these results see US7098012B1, “DNA demethylase, therapeutic and diagnostic uses thereof” (McGill University, priority 1997, dated 2006).
